# Changes are numbered by the printed parent chain.
# B1: 723C2 (mouse IgG1 backbone) (antibody, V domains shown)
# VH: EVQLVESGGGLVQPGGSLKLSCAASGFTFSDYYMSWVRQTPEKRLEWVAYISSGGGSSYYPDSVKGRFTISRDNTKNTLYLQMSSLKSEDTAVYYCARLPHYFAMDCWGQGTSVTVSS
# VL: EIVLTQSPTTMAASPGEKITITCSASSSISSDYLHWYQQKPGFSPELLIYRTSNLASGVPARFSGSGSGTSYSLTIGSMEAEDVATYYCQQGTSLPRAFGGGTKLEIK
# B2: 313C12 (mouse IgG1 backbone) (antibody, V domains shown)
# VH: EVQLVESGGGLVKPGGSLKLSCAASGFTFSDYGMHWVRQTPEKGLEWIAYINSDSNTIYYADTVKGRFTISRDNARKTLYLQMTSLRSEDTAMYYCSPLVAPDYWGQGTTLTVSS
# VL: DIVMTQSQKFMSTTVGDRVSITCKASQNVGTAVAWYQQKPGQSPKLLIYSVSNRYTGVPDRFTGSGSGTDFTLTISNMQSEDLADYFCQQYSSYPFTFGAGTKLELK
# B3: 708E4 (mouse IgG1 backbone) (antibody, V domains shown)
# VH: QIQLQQSGPELVKPGASVKISCKASGYTFTDYYLNWVKQRPGHGLEWIGWIYPGSSDTKHNENFKGKATLTVDTYSSTAYMQLGSLTSEDSAVYFCTRYSNFFFDYWGQGTTLTVSS
# VL: DIVMTQSQKFLSTSVGDRVRVTCKASQNVVTYVAWYQQKPGQSPKSLIYSASYRYSGVPDRFTGSGSGTYFTLTINNVQFEDLAEYFCQQYHSYPYTFGGGTKLEIK
# B4: 814E10 (mouse IgG1 backbone) (antibody, V domains shown)
# VH: QIQLQQSGPELVKPGASVKISCKASGYTFTSYYIQWVKQRPGQGLEWIGWIYPGDGTTNYNENFKGKTTLTADKSSSTVYMLLSSLTSEDSAVYFCARYGLVPFDYWGQGTTLTVSS
# VL: DIQMTQTTSSLSASLGDRVTISCSASQDIINYLNWYQQKPDGTVKLLIYSTSSLHSGVSLRFSGSGSGTDYSLTISNLEPEDVATYYCHQYSQLPYTFGGGTKLEIK
# B5: Chimeric 820C3 (antibody, V domains shown)
# VH: QIQLQQSGPELVKTGASVKISCKASGNTFNSNYIQWVKQRPGQGLEWIGWIYPGDGSTNYSEKFKGKTTLTADKSSSTAYMLVSSLTSEDSAVYFCARYGPVPFDYWGQGTTLSVSS
# VL: B4 VL with I30F, S50Y, S59P, L60S, Y71F, V83I, H89Q, Q93N
# notes: Mouse variable domains in human IgG4Pro (Ser228Pro) backbone; also called chimeric 820C3 in IgG4Pro; 820C3-4P
# B6: 820C3 (mouse IgG1 backbone) (antibody, V domains shown)
# VH: B5 VH
# VL: B4 VL with I30F, S50Y, S59P, L60S, Y71F, V83I, H89Q, Q93N
# B7: 703D10 (mouse IgG1 backbone) (antibody, V domains shown)
# VH: QVQLQQPGAELVKPGASVKLSCKASGYSFTSYWMHWVRQRPGQGLEWIGDIDPSNSYAYHSQKFKGKATLTVDKSSSTAYMQLSSLTSEDSAVYFCARADGTSHWYFDVWGAGTAVTVSS
# VL: QIVLTQSPGIMSASPGEKVTITCSANSSVSFMHWFQQKPGTSPKIWIYSTSSLASGVPARFSGSGSGTSYSLTISRMEAEDAATYYCQQRSSYPLTFGAGTKLELK
# B8: Chimeric 703D10 (antibody, V domains shown)
# VH: B7 VH
# VL: B7 VL
# notes: Mouse variable domains in human IgG4Pro (Ser228Pro) backbone; also called 703D10 in human IgG4Pro backbone
# B9: 718C2 (mouse IgG1 backbone) (antibody, V domains shown)
# VH: EVQLQQSGPELVKPGASVKMSCKASGYTFTSYVMHWVRQKPGQGLEWIGYIDPDNDGTKYNEKFKGKATLTSDKSSSTAYMELSSLTSEDSAVYYCAREAYYGGLYGMDYWGQGSSVTVSS
# VL: DIVMSQSPSSLTVSVGEKVTMSCKSSQSLLYSSNQKIYLAWFQQKPGQSPKLLIYWASTRESGVPDRFTGSGSGTDFTLTISSVKAEDLAVYYCQQYYNSPLTFGAGTKLELK
# B10: Chimeric 718C2 (antibody, V domains shown)
# VH: B9 VH
# VL: B9 VL
# notes: Mouse variable domains in human IgG4Pro (Ser228Pro) backbone; also called 718C2 in human IgG4Pro backbone
# B11: 306E6 (mouse IgG1 backbone) (antibody, V domains shown)
# VH: EVQLQQSGPELVKPGSSVKISCKASGYTFTDYYVNWVKQSHGKSLEWFGDIHPNSGDTTYNQKFKDKATLTVDKSSSTAYMELRSLTSEDSAVYYCARRRYDYDGFAYWGQGTLVTVSA
# VL: EIVMTQAAFSNPVTLGTSASISCRSSKSLLHRNGITYLYWYLQKPGQSPQLLIYEMSNLASGVPDRFSSSGSGTDFTLRISRVEAEDVGVYYCGQNLEFPLTFGAGTKLELK
# B12: 414A12 (mouse IgG1 backbone) (antibody, V domains shown)
# VH: QVQLQQPGAELVKPGASVKLSCKASGHTFTSNWIHWVKQRPGQGLEWIGEIDPSDSYTYYNQKFKGKATLTVDKSSSTAYMQLSSLTSEDSAVYSCACPGRNSNFAYWGQGTTLTVSS
# VL: DILMTQSPSSMSVSLGDTVSITCHASQGINNNIGWLQQKPGKSFKGLIYHKSNLEDGVPSRFSGSGSGADYSLTISSLESEDFADYYCVQYAQFPYTFGGGTKLEIK
# B13: Antibody E (antibody, human IgG4 S228P, kappa, V domains shown)
# VH: EVQLVESGGGLVQPGGSLRLSCAASGFTFSDYYMSWVRQAPGKGLEWVAYISSGGGSSYYPDLVKGRFTISRDNAKQSLYLQMQSLRAEDTAVYYCARLPHYFAMDYWGQGTLVTVSS
# VL: DIQMTQSPSSLSASVGDRVTITCQASQSISSDYLHWYQQKPGKAPKLLIYRTSNLESGVPSRFSGSGSGTDFTFTISSLQPEDIATYYCQQGTSLPRAFGQGTKLEIKR
# notes: Humanized 723C2, human IgG4Pro/kappa; also called 723C2-IgG4Pro-461-40 with IgK-462-08
# B14: Antibody A (antibody, human IgG4 S228P, kappa, V domains shown)
# VH: B13 VH with A49S, S58K, Q77N, Q84S
# VL: B13 VL with Q24S, E56A
# notes: Humanized 723C2, human IgG4Pro/kappa
# Biological target: T1, human PD-1 expressed on cells (human, UniProt Q15116 25-288)
# T1 sequence (Q15116 25-288): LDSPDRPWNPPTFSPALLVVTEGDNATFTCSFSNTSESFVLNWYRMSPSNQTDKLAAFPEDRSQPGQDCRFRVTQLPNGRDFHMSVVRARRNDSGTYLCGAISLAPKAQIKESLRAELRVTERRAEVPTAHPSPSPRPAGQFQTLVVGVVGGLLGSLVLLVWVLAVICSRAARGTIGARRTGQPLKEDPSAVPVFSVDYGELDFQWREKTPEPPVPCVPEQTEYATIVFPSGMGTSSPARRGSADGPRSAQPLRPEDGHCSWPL
# Assay: cell-based or functional assay
Binder,"Emax Values (%), inhibition of NFAT activity [%]","IC50 Values (nM), inhibition of NFAT activity [nM]"
B1,43.7,0.14
B2,42.2,0.37
B3,48.7,0.17
B4,40.7,0.25
B5,40,0.14
B6,48.7,0.14
B7,47.4,10.9
B8,41.9,0.39
B9,50.8,0.82
B10,44.4,0.38
B11,45.5,1.14
B12,45,0.39

# Biological target: T2, cynomologous PD-1 (cynomolgus monkey, UniProt B0LAJ3 25-170)
# T2 construct: Used in SPR; also called cynomolgus PD-1; recombinant cynomologus PD-1
# T2 sequence (B0LAJ3 entry or part of it limits assumed): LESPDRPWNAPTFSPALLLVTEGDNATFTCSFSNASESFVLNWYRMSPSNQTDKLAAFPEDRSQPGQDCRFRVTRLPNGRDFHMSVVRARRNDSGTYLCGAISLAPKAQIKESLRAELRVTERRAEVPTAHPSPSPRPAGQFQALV
# Assay: SPR, ProteOn XPR36, 1:1 binding model
# Experimental: C) Affinity and kinetic data for the anti-PD-1 antibodies binding to cynomologous PD-1 were measured on the ProteOn™ XPR36 surface plasmon resonance optical biosensor, and globally fit to a 1:1 binding model (Table 11).
Binder,Kd [nM],koff [s⁻¹],kon [M⁻¹ s⁻¹]
B13,38.2,0.00663,173000
B14,26.5,0.00473,178000

# Biological target: T3, recombinant human PD-1 (human, UniProt Q15116 25-167, limits assumed)
# T3 construct: Soluble recombinant protein used in SPR; also called PDCD1; purified recombinant human PD-1
# T3 sequence (Q15116 25-167 limits assumed): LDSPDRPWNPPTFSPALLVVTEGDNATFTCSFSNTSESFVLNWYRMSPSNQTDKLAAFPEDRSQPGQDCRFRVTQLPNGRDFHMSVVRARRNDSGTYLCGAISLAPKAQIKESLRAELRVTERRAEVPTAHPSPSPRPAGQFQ
# Assay: SPR, ProteOn XPR36
# Experimental: Kinetics and binding affinities were measured using the ProteOn™ XPR36 (Biorad, Hercules, CA) surface plasmon resonance optical biosensor using material generated from transient transfection following single column purification.
Binder,Kd [nM],koff [s⁻¹],kon [M⁻¹ s⁻¹]
B5,2.71,0.000286,106000
B8,9.49,0.000329,34600
B10,3.98,0.000113,28400

# Biological target: T1, human PD-1 expressed on cells
# Assay: cell-based or functional assay
# Remark: another data set of the same source
Binder,"Emax Values (%), Average, inhibition of IFNγ [%]","IC50 Values (pM), Average, inhibition of IFNγ [pM]"
B1,74,122
B2,79,459
B3,73.5,915
B4,63,74.2
B6,82,205
B7,65,3200
B9,64.5,995
B11,19.5,22

# Biological target: T1, human PD-1 expressed on cells
# Assay: cell-based or functional assay
# Remark: another data set of the same source
Binder,"Emax Values (%), Average, inhibition of IL-17A [%]","IC50 Values (pM), Geomean, inhibition of IL-17A [pM]"
B13,59.2,8.1
B14,69.8,41.1

# Biological target: T3, recombinant human PD-1
# Assay: SPR, ProteOn XPR36, 1:1 binding model
# Experimental: Antibody PD1AB-6-4P (antibody in IgG4Pro backbone disclosed in WO2017/058859 to Celgene) was also tested.
Binder,Kd [nM],koff [s⁻¹],kon [M⁻¹ s⁻¹]
B13,2.77,0.000492,178000
B14,2.73,0.000434,159000

# Biological target: T1, human PD-1 expressed on cells
# Assay: cell-based or functional assay
# Remark: another data set of the same source
Binder,"Emax Values (%), Average, inhibition of IFNγ [%]","IC50 Values (pM), Geomean, inhibition of IFNγ [pM]"
B5,56.7,38.5
B13,47.8,8.1
B14,49,7.4

# Source: patent US20260070984A1 (Boehringer Ingelheim, published 2026)
